Reference: publication PMC7367873, “Dissecting the sequence determinants for dephosphorylation by the catalytic subunits of phosphatases PP1 and PP2A” (Nature Communications, 2020)

Experiments:
GFP-14-3-3β = GFP-14-3-3β co-IP with LC-MS/MS, untreated GFP-14-3-3β versus GFP control (14-3-3 interactome); type: binding, human; conditions: 3 replicates each
[1] = system: GFP-14-3-3β and its binding proteins; test: GFP-14-3-3β co-IP with LC-MS/MS label-free quantification, untreated versus PP1c-treated; set-up: species or system human; conditions: pairwise comparison PP1 vs untreated, 3 replicates each
[2] = pairwise comparison untreated GFP-14-3-3β vs GFP, student's t-test, LC-MS/MS label-free quantification
[3] = student's t-test, LC-MS/MS label-free quantification

| Difference (log2), PP1 vs untreated [1, 3] | Difference (log2), PP1 vs untreated ([1]; log2 difference, label-free quantification) | Molecule | Difference (log2), untreated vs GFP (GFP-14-3-3β; [2]) | Difference (log2), untreated vs GFP (GFP-14-3-3β; log2 difference, pairwise comparison untreated vs GFP, label-free quantification) |
| --- | --- | --- | --- | --- |
| -2.4581 log2 |  | HIRIP3 (protein, UniProt Q9BW71 1-556, looked up) HIRA-interacting protein 3: MAREKEMQEFTRSFFRGRPDLSTLTHSIVRRRYLAHSGRSHLEPEEKQALKRLVEEELLKMQVDEAASREDKLDLTKKGKRPPTPCSDPERKRFRFNSESESGSEASSPDYFGPPAKNGVAAEVSPAKEENPRRASKAVEESSDEERQRDLPAQRGEESSEEEEKGYKGKTRKKPVVKKQAPGKASVSRKQAREESEESEAEPVQRTAKKVEGNKGTKSLKESEQESEEEILAQKKEQREEEVEEEEKEEDEEKGDWKPRTRSNGRRKSAREERSCKQKSQAKRLLGDSDSEEEQKEAASSGDDSGRDREPPVQRKSEDRTQLKGGKRLSGSSEDEEDSGKGEPTAKGSRKMARLGSTSGEESDLEREVSDSEAGGGPQGERKNRSSKKSSRKGRTRSSSSSSDGSPEAKGGKAGSGRRGEDHPAVMRLKRYIRACGAHRNYKKLLGSCCSHKERLSILRAELEALGMKGTPSLGKCRALKEQREEAAEVASLDVANIISGSGRPRRRTAWNPLGEAAPPGELYRRTLDSDEERPRPAPPDWSHMRGIISSDGESN | 0.3778 log2 |  |
| -2.4301 log2 |  | CLASP2 (protein, UniProt O75122 1-1294, looked up) CLIP-associating protein 2: MAMGDDKSFDDEESVDGNRPSSAASAFKVPAPKTSGNPANSARKPGSAGGPKVGGASKEGGAGAVDEDDFIKAFTDVPSIQIYSSRELEETLNKIREILSDDKHDWDQRANALKKIRSLLVAGAAQYDCFFQHLRLLDGALKLSAKDLRSQVVREACITVAHLSTVLGNKFDHGAEAIVPTLFNLVPNSAKVMATSGCAAIRFIIRHTHVPRLIPLITSNCTSKSVPVRRRSFEFLDLLLQEWQTHSLERHAAVLVETIKKGIHDADAEARVEARKTYMGLRNHFPGEAETLYNSLEPSYQKSLQTYLKSSGSVASLPQSDRSSSSSQESLNRPFSSKWSTANPSTVAGRVSAGSSKASSLPGSLQRSRSDIDVNAAAGAKAHHAAGQSVRSGRLGAGALNAGSYASLEDTSDKLDGTASEDGRVRAKLSAPLAGMGNAKADSRGRSRTKMVSQSQPGSRSGSPGRVLTTTALSTVSSGVQRVLVNSASAQKRSKIPRSQGCSREASPSRLSVARSSRIPRPSVSQGCSREASRESSRDTSPVRSFQPLASRHHSRSTGALYAPEVYGASGPGYGISQSSRLSSSVSAMRVLNTGSDVEEAVADALKKPARRRYESYGMHSDDDANSDASSACSERSYSSRNGSIPTYMRQTEDVAEVLNRCASSNWSERKEGLLGLQNLLKNQRTLSRVELKRLCEIFTRMFADPHGKRVFSMFLETLVDFIQVHKDDLQDWLFVLLTQLLKKMGADLLGSVQAKVQKALDVTRESFPNDLQFNILMRFTVDQTQTPSLKVKVAILKYIETLAKQMDPGDFINSSETRLAVSRVITWTTEPKSSDVRKAAQSVLISLFELNTPEFTMLLGALPKTFQDGATKLLHNHLRNTGNGTQSSMGSPLTRPTPRSPANWSSPLTSPTNTSQNTLSPSAFDYDTENMNSEDIYSSLRGVTEAIQNFSFRSQEDMNEPLKRDSKKDDGDSMCGGPGMSDPRAGGDATDSSQTALDNKASLLHSMPTHSSPRSRDYNPYNYSDSISPFNKSALKEAMFDDDADQFPDDLSLDHSDLVAELLKELSNHNERVEERKIALYELMKLTQEESFSVWDEHFKTILLLLLETLGDKEPTIRALALKVLREILRHQPARFKNYAELTVMKTLEAHKDPHKEVVRSAEEAASVLATSISPEQCIKVLCPIIQTADYPINLAAIKMQTKVIERVSKETLNLLLPEIMPGLIQGYDNSESSVRKACVFCLVAVHAVIGDELKPHLSQLTGSKMKLLNLYIKRAQTGSGGADPTTDVSGQS | 2.306 log2 |  |
| -2.404 log2 |  | PARD3 (protein, UniProt Q8TEW0 1-1356, looked up) Partitioning defective 3 …: MKVTVCFGRTRVVVPCGDGHMKVFSLIQQAVTRYRKAIAKDPNYWIQVHRLEHGDGGILDLDDILCDVADDKDRLVAVFDEQDPHHGGDGTSASSTGTQSPEIFGSELGTNNVSAFQPYQATSEIEVTPSVLRANMPLHVRRSSDPALIGLSTSVSDSNFSSEEPSRKNPTRWSTTAGFLKQNTAGSPKTCDRKKDENYRSLPRDTSNWSNQFQRDNARSSLSASHPMVGKWLEKQEQDEDGTEEDNSRVEPVGHADTGLEHIPNFSLDDMVKLVEVPNDGGPLGIHVVPFSARGGRTLGLLVKRLEKGGKAEHENLFRENDCIVRINDGDLRNRRFEQAQHMFRQAMRTPIIWFHVVPAANKEQYEQLSQSEKNNYYSSRFSPDSQYIDNRSVNSAGLHTVQRAPRLNHPPEQIDSHSRLPHSAHPSGKPPSAPASAPQNVFSTTVSSGYNTKKIGKRLNIQLKKGTEGLGFSITSRDVTIGGSAPIYVKNILPRGAAIQDGRLKAGDRLIEVNGVDLVGKSQEEVVSLLRSTKMEGTVSLLVFRQEDAFHPRELNAEPSQMQIPKETKAEDEDIVLTPDGTREFLTFEVPLNDSGSAGLGVSVKGNRSKENHADLGIFVKSIINGGAASKDGRLRVNDQLIAVNGESLLGKTNQDAMETLRRSMSTEGNKRGMIQLIVARRISKCNELKSPGSPPGPELPIETALDDRERRISHSLYSGIEGLDESPSRNAALSRIMGESGKYQLSPTVNMPQDDTVIIEDDRLPVLPPHLSDQSSSSSHDDVGFVTADAGTWAKAAISDSADCSLSPDVDPVLAFQREGFGRQSMSEKRTKQFSDASQLDFVKTRKSKSMDLGIADETKLNTVDDQKAGSPSRDVGPSLGLKKSSSLESLQTAVAEVTLNGDIPFHRPRPRIIRGRGCNESFRAAIDKSYDKPAVDDDDEGMETLEEDTEESSRSGRESVSTASDQPSHSLERQMNGNQEKGDKTDRKKDKTGKEKKKDRDKEKDKMKAKKGMLKGLGDMFRFGKHRKDDKIEKTGKIKIQESFTSEEERIRMKQEQERIQAKTREFRERQARERDYAEIQDFHRTFGCDDELMYGGVSSYEGSMALNARPQSPREGHMMDALYAQVKKPRNSKPSPVDSNRSTPSNHDRIQRLRQEFQQAKQDEDVEDRRRTYSFEQPWPNARPATQSGRHSVSVEVQMQRQRQEERESSQQAQRQYSSLPRQSRKNASSVSQDSWEQNYSPGEGFQSAKENPRYSSYQGSRNGYLGGHGFNARVMLETQELLRQEQRRKEQQMKKQPPSEGPSNYDSYKKVQDPSYAPPKGPFRQDVPPSPSQVARLNRLQTPEKGRPFYS | 5.534 log2 |  |
|  | 1.556 | MYPN (protein, UniProt Q86TC9 1-1320, looked up) Myopalladin: MQDDSIEASTSISQLLRESYLAETRHRGNNERSRAEPSSNPCHFGSPSGAAEGGGGQDDLPDLSAFLSQEELDESVNLARLAINYDPLEKADETQARKRLSPDQMKHSPNLSFEPNFCQDNPRSPTSSKESPQEAKRPQYCSETQSKKVFLNKAADFIEELSSLFKSHSSKRIRPRACKNHKSKLESQNKVMQENSSSFSDLSERRERSSVPIPIPADTRDNEVNHALEQQEAKRREAEQAASEAAGGDTTPGSSPSSLYYEEPLGQPPRFTQKLRSREVPEGTRVQLDCIVVGIPPPQVRWYCEGKELENSPDIHIVQAGNLHSLTIAEAFEEDTGRYSCFASNIYGTDSTSAEIYIEGVSSSDSEGDPNKEEMNRIQKPNEVSSPPTTSAVIPPAVPQAQHLVAQPRVATIQQCQSPTNYLQGLDGKPIIAAPVFTKMLQNLSASEGQLVVFECRVKGAPSPKVEWYREGTLIEDSPDFRILQKKPRSMAEPEEICTLVIAEVFAEDSGCFTCTASNKYGTVSSIAQLHVRGNEDLSNNGSLHSANSTTNLAAIEPQPSPPHSEPPSVEQPPKPKLEGVLVNHNEPRSSSRIGLRVHFNLPEDDKGSEASSEAGVVTTRQTRPDSFQERFNGQATKTPEPSSPVKEPPPVLAKPKLDSTQLQQLHNQVLLEQHQLQNPPPSSPKEFPFSMTVLNSNAPPAVTTSSKQVKAPSSQTFSLARPKYFFPSTNTTAATVAPSSSPVFTLSSTPQTIQRTVSKESLLVSHPSVQTKSPGGLSIQNEPLPPGPTEPTPPPFTFSIPSGNQFQPRCVSPIPVSPTSRIQNPVAFLSSVLPSLPAIPPTNAMGLPRSAPSMPSQGLAKKNTKSPQPVNDDNIRETKNAVIRDLGKKITFSDVRPNQQEYKISSFEQRLMNEIEFRLERTPVDESDDEIQHDEIPTGKCIAPIFDKRLKHFRVTEGSPVTFTCKIVGIPVPKVYWFKDGKQISKRNEHCKMRREGDGTCSLHIESTTSDDDGNYTIMAANPQGRISCSGHLMVQSLPIRSRLTSAGQSHRGRSRVQERDKEPLQERFFRPHFLQAPGDMVAHEGRLCRLDCKVSGLPPPELTWLLNGQPVLPDASHKMLVRETGVHSLLIDPLTQRDAGTYKCIATNKTGQNSFSLELSVVAKEVKKAPVILEKLQNCGVPEGHPVRLECRVIGMPPPVFYWKKDNETIPCTRERISMHQDTTGYACLLIQPAKKSDAGWYTLSAKNEAGIVSCTARLDIYAQWHHQIPPPMSVRPSGSRYGSLTSKGLDIFSAFSSMESTMVYSCSSRSVVESDEL |  | -0.08833 |
| -2.475 log2 |  | SAFB (protein, UniProt Q15424 2-915, looked up) Scaffold attachment factor B1: AETLSGLGDSGAAGAAALSSASSETGTRRLSDLRVIDLRAELRKRNVDSSGNKSVLMERLKKAIEDEGGNPDEIEITSEGNKKTSKRSSKGRKPEEEGVEDNGLEENSGDGQEDVETSLENLQDIDIMDISVLDEAEIDNGSVADCVEDDDADNLQESLSDSRELVEGEMKELPEQLQEHAIEDKETINNLDTSSSDFTILQEIEEPSLEPENEKILDILGETCKSEPVKEESSELEQPFAQDTSSVGPDRKLAEEEDLFDSAHPEEGDLDLASESTAHAQSSKADSLLAVVKREPAEQPGDGERTDCEPVGLEPAVEQSSAASELAEASSEELAEAPTEAPSPEARDSKEDGRKFDFDACNEVPPAPKESSTSEGADQKMSSPEDDSDTKRLSKEEKGRSSCGRNFWVSGLSSTTRATDLKNLFSKYGKVVGAKVVTNARSPGARCYGFVTMSTAEEATKCINHLHKTELHGKMISVEKAKNEPVGKKTSDKRDSDGKKEKSSNSDRSTNLKRDDKCDRKDDAKKGDDGSGEKSKDQDDQKPGPSERSRATKSGSRGTERTVVMDKSKGVPVISVKTSGSKERASKSQDRKSASREKRSVVSFDKVKEPRKSRDSESHSRVRERSEREQRMQAQWEREERERLEIARERLAFQRQRLERERMERERLERERMHVEHERRREQERIHREREELRRQQELRYEQERRPAVRRPYDLDRRDDAYWPEAKRAALDERYHSDFNRQDRFHDFDHRDRGRYPDHSVDRREGSRSMMGEREGQHYPERHGGPERHGRDSRDGWGGYGSDKRMSEGRGLPPPPRRDWGDHGRREDDRSWQGTADGGMMDRDHKRWQGGERSMSGHSGPGHMMNRGGMSGRGSFAPGGASRGHPIPHGGMQGGFGGQSRGSRPSDARFTRRY | 3.699 log2 |  |
